Measured values reported in patent US20240285790A1 (HENRY M JACKSON FOUNDATION FOR THE ADVANCEMENT OF MILITARY …, published 2024).

Molecular target: HIV-1 JRFL Env (full length), on infected primary CD4+ T cells and on virions (HIV-1 JRFL, UniProt P20871 32-503; P20871 504-848)
Assay: cell-based or functional assay

B1: X5 antibody (antibody, V domains shown)
VH: VQLLEQSGAEVKKPGSSVQVSCKASGGTFSMYGFNWVRQAPGHGLEWMGGIIPIFGTSNYAQKFRGRVTFTADQATSTAYMELTNLRSDDTAVYYCARDFGPDWEDGDSYDGSGRGFFDFWGQGTLVTVSS
VL: ELVLTQSPGTLSLSAGERATLSCRASQSVSSGSLAWYQQKPGQAPRLLIYGASTRATGIPDRFSGSGSGTDFTLTIGRLEPEDLAVYYCQQYGTSPYTFGQGTKLEIKR
For B1, the “Neutralization IC50 against JRFL (X5 + sCD4 mix)” value was 3.23 µg/mL and the “Neutralization IC50 against JRFL (X5 antibody alone)” value was > 10 µg/mL.

B2: N5-i5 antibody (antibody, V domains shown)
VH: EVQLVESGGGLVQPGGSLRLSCAASGFTFSTYAMSWVRQAPGKGLEWVSSINNSGRNTFSADSVKGRFTISRDNSKNTLFLVMNSLRAEDTAVYYCAKDLRLGGGSDYWGQGTLVTVSS
VL: QSALTQPASVSGSPGQSITISCTGTSSDVGSYNFVSWYQQHPGKAPKLMIYEVSERPSGISNRFSGSKSGNTASLTISGLQAEDEADYYCSSYAGSTTFRVFGGGTKLTVRG
With B2 the “Neutralization IC50 against JRFL (N5-i5 + sCD4 mix)” value was > 10 µg/mL and the “Neutralization IC50 against JRFL (N5-i5 antibody alone)” value was > 10 µg/mL.

B3: A32 antibody (antibody, V domains shown)
VH: QVQLQESGPGLVKPSQTLSLSCTVSGGSSSSGAHYWSWIRQYPGKGLEWIGYIHYSGNTYYNPSLKSRITISQHTSENQFSLKLNSVTVADTAVYYCARGTRLRTLRNAFDIWGQGTMVTVSS
VL: VLTQPPSASGSPGQSVTISCTGTSSDVGGYNYVSWYQHHPGKAPKLIISEVNNRPSGVPDRFSGSKSGNTASLTVSGLQAEDEAEYYCSSYTDIHNFVFGGGTKLTVLG
B3 was tested, and the “Neutralization IC50 against JRFL (A32 + sCD4 mix)” value was > 10 µg/mL and the “Neutralization IC50 against JRFL (A32 antibody alone)” value was > 10 µg/mL.
